Where no end group is shown, it is not given here. [ ]: non-standard residue; d: D form. 5‑Cl‑benzothiazol‑2‑yl side chain = not defined here; 6‑Cl‑benzothiazol‑2‑yl side chain = not defined here; Phe(3-CF3) = N[C@@H](Cc1cccc(C(F)(F)F)c1)C(=O)O; Phe(3,5-F2) = N[C@@H](Cc1cc(F)cc(F)c1)C(=O)O; Phe(3-CN) = N#Cc1cccc(C[C@H](N)C(=O)O)c1; Phe(3-Cl) = N[C@@H](Cc1cccc(Cl)c1)C(=O)O; Phe(4-Cl) = N[C@@H](Cc1ccc(Cl)cc1)C(=O)O; Phe(2-Cl) = N[C@@H](Cc1ccccc1Cl)C(=O)O; 2Nal = N[C@@H](Cc1ccc2ccccc2c1)C(=O)O; Phe(2-F) = N[C@@H](Cc1ccccc1F)C(=O)O; hPhe = N[C@@H](CCc1ccccc1)C(=O)O

The test deals with human DCN1 (residues 58–259), N-terminal His6 tag (human, UniProt Q96GG9 58-259). The experiment in a line: FP.
Chain of human DCN1 (residues 58–259), N-terminal His6 tag (Q96GG9 58-259): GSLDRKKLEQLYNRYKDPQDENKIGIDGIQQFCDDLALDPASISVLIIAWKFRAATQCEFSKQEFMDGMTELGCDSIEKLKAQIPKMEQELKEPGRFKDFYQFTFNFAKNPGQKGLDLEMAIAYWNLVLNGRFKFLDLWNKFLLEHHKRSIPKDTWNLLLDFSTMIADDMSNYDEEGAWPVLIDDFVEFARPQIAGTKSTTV
As usually defined, the Ki is the dissociation constant of the complex between target and ligand, obtained from inhibition or displacement. Molecule [2Nal]IKL [compound 23 (11 with the phenyl replaced by naphthalen-2-yl)] displayed a Ki of 3.8 µM.

Molecule [Phe(3-CN)]IKL [analog of 11 containing an m-CN substituted phenyl] showed a Ki of over 1000 µM.

For the molecule [Phe(2-F)]IKL [analog of 11 with o-F substitution of the phenyl], the Ki was 125 µM.

Regarding YIKL [analog of 11 with p-OH substitution of the phenyl], the Ki was 386 µM.

FIKL [compound 11 (tetrapeptide 9 with Met1 replaced by phenylalanine)] showed a Ki of 41 µM.

MIKLFSLKQQ [UBC12 peptide 3] showed a Ki of 6 µM.

Consider MIKLFS [UBC12 peptide 7], for which the inhibition constant (Ki) was determined as 83 µM.

With MIKLFSLKQ [UBC12 peptide 4], the Ki was found to be 6.5 µM.

Take [Phe(3-CF3)]IKL [analog of 11 containing an m-CF3 substituted phenyl]: the Ki is over 1000 µM.

Turning to MIK [UBC12 tripeptide (10)], the inhibition constant Ki is over 1000 µM.

In turn, [Phe(3-Cl)]IKL [compound 14 (11 with Cl at the meta position of the phenyl ring)] had a Ki of 45 µM.

As to [hPhe]IKL [compound 12 (tetrapeptide 9 with Met1 replaced by homophenylalanine)], affinity was put at a Ki of 313 µM.

[Phe(2-Cl)]IKL [compound 13 (11 with Cl at the ortho position of the phenyl ring)] displayed a Ki of 143 µM.

Molecule MIKLFSL [UBC12 seven-residue peptide (6)] returned a Ki of 28 µM.

For MIKLF [UBC12 peptide 8], the Ki came to 111 µM.

Regarding [5‑Cl‑benzothiazol‑2‑yl side chain]IKL (not fully specified; reading uncertain) [compound 25 (24 with 5-Cl on the benzothiazol-2-yl)], the Ki is 2.5 µM.

Molecule MIKLFSLKQQK [UBC12 peptide 2 (peptide 1 without Lys12)] yielded a Ki of 2.4 µM.

MIKLFSLK [UBC12 peptide 5] returned a Ki of 9.2 µM.

Molecule [Phe(4-Cl)]IKL [compound 15 (11 with Cl at the para position of the phenyl ring)] returned a Ki of 71 µM.

The molecule [Phe(3,5-F2)]IKL [analog of 11 with 3,5-di-F substitution of the phenyl] came in with a Ki of 82 µM.

In turn, [6‑Cl‑benzothiazol‑2‑yl side chain]IKL (not fully specified; reading uncertain) [compound 26 (24 with 6-Cl on the benzothiazol-2-yl)] showed a Ki of 0.034 µM.

Source of the values: publication PMC5658359 (2017).
